Substitutions are numbered along the chain they refer to. In names and notes the source's numbering stands.
B1: anti-mutCALR antibody clone 75 (antibody, human IgG1, lambda, N297A, V domains shown)
VH: EVQLVQSGAEVKKPGASVKVSCKVSGYTLTELSMQWVRQAPGKGLEWMGGFDPDDGETMYAEKFQGRLTVTEDTSTDTVYMELRSLTSEDTALYFCATSPGYDFFDYWGQGTLVTVSS
VL: SYVLTQPPSVSVAPGKTARITCGGNNIGSKSVHWYQQKPGQAPVLVVYDDSDRPSGIPERFSGSNSGNTATLTISRVEAGDEADYYCQVWDSSNDLLIFGGGTKLTVLG
notes: human IgG1 N297A variant of clone 6
B2: anti-mutCALR antibody clone 130 (antibody, human IgG1, lambda, N297A, V domains shown)
VH: B1 VH with D55A, R84S, T87R, L93V
VL: B1 VL with V3E, N25D, S75N
notes: human IgG1 N297A variant of clone 15
B3: anti-mutCALR antibody clone 131 (antibody, human IgG1, lambda, N297A, V domains shown)
VH: B1 VH with D55S, R84S, T87R, L93V
VL: B1 VL with V3E, N25D, S75N
notes: as for B2
B4: anti-mutCALR antibody clone 129 (antibody, human IgG1, lambda, N297A, V domains shown)
VH: B1 VH with R84S, T87R, L93V
VL: B1 VL with V3E, N25D, S75N
notes: as for B2
B5: anti-mutCALR antibody clone 133 (antibody, human IgG1, lambda, N297A, V domains shown)
VH: B1 VH with G56A, R84S, T87R, L93V
VL: B1 VL with V3E, N25D, S75N
notes: as for B2
B6: anti-mutCALR antibody clone 125 (antibody, human IgG1, lambda, N297A, V domains shown)
VH: B1 VH with D55A
VL: B1 VL with V3E, N25D, S75N
notes: as for B2
B7: anti-mutCALR antibody clone 82 (antibody, human IgG1, lambda, N297A, V domains shown)
VH: B1 VH with D55S, R84S, T87R, L93V
VL: B1 VL
notes: as for B1
B8: anti-mutCALR antibody clone 137 (antibody, human IgG1, lambda, N297A, V domains shown)
VH: B1 VH with D55E
VL: B1 VL with N25D
notes: as for B2
B9: anti-mutCALR antibody clone 136 (antibody, human IgG1, lambda, N297A, V domains shown)
VH: B1 VH with D55S
VL: B1 VL with N25D
notes: as for B2
B10: anti-mutCALR antibody clone 132 (antibody, human IgG1, lambda, N297A, V domains shown)
VH: B1 VH with D55E, R84S, T87R, L93V
VL: B1 VL with V3E, N25D, S75N
notes: as for B2
B11: anti-mutCALR antibody clone 79 (antibody, human IgG1, lambda, N297A, V domains shown)
VH: B1 VH with G56A
VL: B1 VL
notes: as for B1
B12: anti-mutCALR antibody clone 84 (antibody, human IgG1, lambda, N297A, V domains shown)
VH: B1 VH with G56A, R84S, T87R, L93V
VL: B1 VL
notes: as for B1
B13: anti-mutCALR antibody clone 126 (antibody, human IgG1, lambda, N297A, V domains shown)
VH: B1 VH with D55S
VL: B1 VL with V3E, N25D, S75N
notes: as for B2
B14: anti-mutCALR antibody clone 81 (antibody, human IgG1, lambda, N297A, V domains shown)
VH: B1 VH with D55A, R84S, T87R, L93V
VL: B1 VL
notes: as for B1
B15: anti-mutCALR antibody clone 83 (antibody, human IgG1, lambda, N297A, V domains shown)
VH: B1 VH with D55E, R84S, T87R, L93V
VL: B1 VL
notes: as for B1
B16: anti-mutCALR antibody clone 78 (antibody, human IgG1, lambda, N297A, V domains shown)
VH: B1 VH with D55E
VL: B1 VL
notes: as for B1
B17: anti-mutCALR antibody clone 77 (antibody, human IgG1, lambda, N297A, V domains shown)
VH: B1 VH with D55S
VL: B1 VL
notes: as for B1
B18: anti-mutCALR antibody clone 134 (antibody, human IgG1, lambda, N297A)
heavy: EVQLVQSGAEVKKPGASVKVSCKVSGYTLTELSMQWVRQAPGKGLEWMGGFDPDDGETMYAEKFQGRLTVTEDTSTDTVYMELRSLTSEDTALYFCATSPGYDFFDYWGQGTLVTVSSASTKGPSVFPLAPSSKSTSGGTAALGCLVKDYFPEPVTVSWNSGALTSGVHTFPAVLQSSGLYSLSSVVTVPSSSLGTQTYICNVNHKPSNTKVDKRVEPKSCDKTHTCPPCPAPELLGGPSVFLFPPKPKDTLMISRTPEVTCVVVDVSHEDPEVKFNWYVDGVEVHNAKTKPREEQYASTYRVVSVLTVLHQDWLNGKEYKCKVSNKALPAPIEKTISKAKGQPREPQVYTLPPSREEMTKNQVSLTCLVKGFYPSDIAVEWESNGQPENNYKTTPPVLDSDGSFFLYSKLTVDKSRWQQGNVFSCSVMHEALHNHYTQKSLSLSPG
light: SYVLTQPPSVSVAPGKTARITCGGDNIGSKSVHWYQQKPGQAPVLVVYDDSDRPSGIPERFSGSNSGNTATLTISRVEAGDEADYYCQVWDSSNDLLIFGGGTKLTVLGQPKAAPSVTLFPPSSEELQANKATLVCLISDFYPGAVTVAWKADSSPVKAGVETTTPSKQSNNKYAASSYLSLTPEQWKSHRSYSCQVTHEGSTVEKTVAPTECS
notes: as for B2
B19: anti-mutCALR antibody clone 128 (antibody, human IgG1, lambda, N297A, V domains shown)
VH: B1 VH with G56A
VL: B1 VL with V3E, N25D, S75N
notes: as for B2
B20: anti-mutCALR antibody clone 80 (antibody, human IgG1, lambda, N297A, V domains shown)
VH: B1 VH with R84S, T87R, L93V
VL: B1 VL
notes: as for B1
B21: anti-mutCALR antibody clone 76 (antibody, human IgG1, lambda, N297A, V domains shown)
VH: B1 VH with D55A
VL: B1 VL
notes: as for B1
B22: anti-mutCALR antibody clone 124 (antibody, human IgG1, lambda, N297A)
heavy: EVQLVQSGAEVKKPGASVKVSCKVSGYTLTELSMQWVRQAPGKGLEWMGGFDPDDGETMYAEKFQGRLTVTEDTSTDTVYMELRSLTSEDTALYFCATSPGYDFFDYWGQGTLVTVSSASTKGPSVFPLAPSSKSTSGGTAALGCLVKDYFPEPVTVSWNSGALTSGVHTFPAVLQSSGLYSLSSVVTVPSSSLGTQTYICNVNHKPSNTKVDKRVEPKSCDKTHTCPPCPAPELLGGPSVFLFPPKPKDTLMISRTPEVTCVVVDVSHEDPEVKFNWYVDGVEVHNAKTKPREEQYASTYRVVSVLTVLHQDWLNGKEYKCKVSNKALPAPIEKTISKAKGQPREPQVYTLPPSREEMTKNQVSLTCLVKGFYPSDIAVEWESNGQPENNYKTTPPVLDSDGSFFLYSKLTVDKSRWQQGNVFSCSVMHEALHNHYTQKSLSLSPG
light: B18 light with V3E, S75N
notes: as for B2
B23: anti-mutCALR antibody clone 135 (antibody, human IgG1, lambda, N297A, V domains shown)
VH: B1 VH with D55A
VL: B1 VL with N25D
notes: as for B2
B24: anti-mutCALR antibody clone 138 (antibody, human IgG1, lambda, N297A, V domains shown)
VH: B1 VH with G56A
VL: B1 VL with N25D
notes: as for B2

The binders below were run against T1, Recombinant MBP-mutCALR Type 1 fusion protein (human) (assay: SPR, IgG captured, 1:1 fit, Exp. 2).
T1 construct: custom made at Cepter; also called recombinant mutCALR protein
Experimental: Experiment 2: Recombinant MBP-mutCALR Type 1 fusion protein was custom made at Cepter (cepterbiopartners.com). Data for the interaction of antibodies with recombinant mutCALR protein were collected at 25° C. on a Biacore 8K instrument (Cytiva, Marlborough, Mass.), and all reagents were obtained from Cytiva unless otherwise specified. The experiments were conducted using Tris-buffered saline (pH 7.2), 0.005% Surfactant P20, 1 mM CaCl₂) as running buffer. To prepare the capture surfaces, anti-human IgG (Fc) antibodies (Product #29234600) was amine-coupled onto a CM4 chip (Product #BR100534) under standard conditions using an Amine Coupling Kit (Product #BR100050). […] The kinetics parameters were obtained by applying 1:1 binding model to fit the data from multiple-cycle injection experiments using Biacore Insight Evaluation software.

Binder	Kd [nM]	koff [s⁻¹]	kon [M⁻¹ s⁻¹]
B1	0.637	0.0039	6.12e+06
B2	4.71	0.00509	1.08e+06
B3	4.83	0.00481	996000
B4	0.53	0.00527	9.94e+06
B5	0.826	0.00702	8.51e+06
B6	4.76	0.0154	3.23e+06
B7	6.23	0.00475	762000
B8	1.27	0.0095	7.51e+06
B9	6.7	0.00507	756000
B10	2.16	0.00244	1.13e+06
B11	1.39	0.00631	4.53e+06
B12	2.01	0.0018	892000
B13	1.19	0.00153	1.29e+06
B14	6.62	0.00494	746000
B15	1.76	0.00992	5.62e+06
B16	2.75	0.0024	873000
B17	5.61	0.0175	3.13e+06
B18	1.12	0.00142	1.27e+06
B19	1.61	0.00207	1.29e+06
B20	0.638	0.00248	–
B21	4.9	0.0155	3.16e+06
B22	1.04	0.00128	1.23e+06
B23	5.17	0.00512	991000
B24	0.875	0.00688	7.86e+06

Source: patent US20230272055A1 (Incyte, published 2023)
